Reference: publication PMC12809092, “A bispecific antibody designed to act as a NRP2/PLXNA1 agonist mimics anticancer activity of SEMA3F” (The Journal of Biological Chemistry, 2025)

Tests used:
[1] = molecular target: the molecule itself; experiment: cryo-EM structure; purified complex of PLXNA1-LBD and aPLXNA1-19-43 Fab; 3.33 Å
[2] = molecular target: T1, PLXNA1-ECD, recombinant human plexinA1 full extracellular domains (Homo sapiens, UniProt Q9UIW2); experiment: BLI; Octet Red96e; Fab captured on streptavidin tips by biotinylated anti-LC-kappa-murine antibody; PLXNA1 ECD or LBD in solution at 1.85-1350 nM; global fit, 1:1 model; details: both partners purified
T1 construct: plexinA1, human, extracellular domains, aa 27-1244; the DNA encoded amino acids 1-1244 of NP_115618.3 (signal peptide removed on secretion); also called hPLXNA1 ECD; source: Expi293F, transfected, purified from culture media (HiTrap MabSelect column)

[3] = molecular target: T2, PLXNA1-LBD, recombinant human plexinA1 ligand-binding domains (human, UniProt Q9UIW2); experiment: as above; details: both partners purified
T2 construct: the DNA encoded amino acids 1-710 of NP_115618.3 (signal peptide removed on secretion); The final cryo-EM model holds only the SEMA and PSI1 domains; also called hPLXNA1 LBD; source: Expi293F, transfected, purified from culture media (HiTrap MabSelect column)

[4] = molecular target: T3, hNRP2_ECD, human neuropilin-2 extracellular domain (Homo sapiens, UniProt O60462); experiment: BLI; affinity of aNRP2 mAbs to hNRP2_ECD, shown as KD; as previously described; mean ± SEM of at least 3 experiments; details: both partners purified
T3 construct: neuropilin-2, human, extracellular domain
T3 sequence (O60462 21-864): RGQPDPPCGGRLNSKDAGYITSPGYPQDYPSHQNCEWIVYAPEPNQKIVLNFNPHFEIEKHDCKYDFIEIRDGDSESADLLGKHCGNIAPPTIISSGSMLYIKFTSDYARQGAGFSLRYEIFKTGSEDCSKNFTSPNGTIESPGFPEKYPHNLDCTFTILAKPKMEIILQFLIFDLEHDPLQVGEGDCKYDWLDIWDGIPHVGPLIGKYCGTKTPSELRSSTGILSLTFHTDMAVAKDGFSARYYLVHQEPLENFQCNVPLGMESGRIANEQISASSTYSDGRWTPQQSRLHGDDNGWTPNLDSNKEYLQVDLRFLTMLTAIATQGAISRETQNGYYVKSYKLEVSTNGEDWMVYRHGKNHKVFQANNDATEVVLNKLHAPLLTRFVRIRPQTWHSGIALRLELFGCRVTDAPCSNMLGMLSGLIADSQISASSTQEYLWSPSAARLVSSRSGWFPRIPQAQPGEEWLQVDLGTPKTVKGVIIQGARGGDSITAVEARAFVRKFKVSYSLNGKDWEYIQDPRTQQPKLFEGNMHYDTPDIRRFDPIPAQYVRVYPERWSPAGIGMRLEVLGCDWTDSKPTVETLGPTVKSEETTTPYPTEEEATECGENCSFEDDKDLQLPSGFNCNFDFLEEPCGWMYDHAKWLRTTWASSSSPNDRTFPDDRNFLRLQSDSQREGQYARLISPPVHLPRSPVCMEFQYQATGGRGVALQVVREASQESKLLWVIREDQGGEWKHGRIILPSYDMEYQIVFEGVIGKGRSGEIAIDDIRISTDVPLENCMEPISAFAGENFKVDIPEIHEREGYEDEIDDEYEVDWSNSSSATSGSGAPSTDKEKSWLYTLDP

B1: PLXNA1-LBD, recombinant human plexinA1 ligand-binding domains (domain or fragment, UniProt Q9UIW2 27-710, looked up)
chain: EAGLPRAGGGSQPPFRTFSASDWGLTHLVVHEQTGEVYVGAVNRIYKLSGNLTLLRAHVTGPVEDNEKCYPPPSVQSCPHGLGSTDNVNKLLLLDYAANRLLACGSASQGICQFLRLDDLFKLGEPHHRKEHYLSSVQEAGSMAGVLIAGPPGQGQAKLFVGTPIDGKSEYFPTLSSRRLMANEEDADMFGFVYQDEFVSSQLKIPSDTLSKFPAFDIYYVYSFRSEQFVYYLTLQLDTQLTSPDAAGEHFFTSKIVRLCVDDPKFYSYVEFPIGCEQAGVEYRLVQDAYLSRPGRALAHQLGLAEDEDVLFTVFAQGQKNRVKPPKESALCLFTLRAIKEKIKERIQSCYRGEGKLSLPWLLNKELGCINSPLQIDDDFCGQDFNQPLGGTVTIEGTPLFVDKDDGLTAVAAYDYRGRTVVFAGTRSGRIRKILVDLSNPGGRPALAYESVVAQEGSPILRDLVLSPNHQYLYAMTEKQVTRVPVESCVQYTSCELCLGSRDPHCGWCVLHSICSRRDACERADEPQRFAADLLQCVQLTVQPRNVSVTMSQVPLVLQAWNVPDLSAGVNCSFEDFTESESVLEDGRIHCRSPSAREVAPITRGQGDQRVVKLYLKSKETGKKFASVDFVFYNCSVHQSCLSCVNGSFPCHWCKYRHVCTHNVADCAFLEGRVNVSEDCPQIL
notes: the DNA encoded amino acids 1-710 of NP_115618.3 (signal peptide removed on secretion); The final cryo-EM model holds only the SEMA and PSI1 domains; also called hPLXNA1 LBD; source: Expi293F, transfected, purified from culture media (HiTrap MabSelect column)
- stoichiometry N [1]: 2

B2: aPLXNA1-19-43 Fab (Fab, V domains shown)
VH: EVQLQQSGPELVKPGASVKISCKASGYKFTENYMDWVKQSHGESLEWIGDISPDNGDTSYNQKFRDKATLTVDKSSSTAYMELRSLTSEDSAVYYCAQIIYYDYVGYALDYWGQGTSVTVSS
VL: QIVLTQSPAILSASPGEKVTMSCSVSSSITYMHWYQQKPGTSPKRWIYDTSKLASGVPARFSGSGSGTSFSLTISNMEAEDAATYYCHQRSSYPYSFGGGTKLEIK
notes: VH of aPLXNA1-19-43; also in the deposited structure; constant part of the Fab heavy chain, mouse IgG1 backbone; VL (kappa) of aPLXNA1-19-43; mouse kappa light chain constant region (Fab captured by an anti-LC-kappa-murine antibody); Fab of the mAb aPLXNA1-19-43, the anti-PLXNA1 half of m6; also called aPLXNA1 Fab 19 to 43; aPLXNA1 Fab-P1943; source: Expi293F, transfected, purified from culture …
- Kd [2]: 2.37 ± 0.78 nM
- Kd [3]: 5.99 ± 1.14 nM

B3: aNRP2-b2cL, anti-NRP2 mAb (antibody, V domains shown)
VH: QVRLQQPGAELVMPGASVKLSCKASGYTFTSYWMHWVKQRPGQGLEWIGVIHPNSASTFYNERFKTKATLTVDRSSSTAYMQLSSLTSEDSAVYYCSRPGTVRRSDYWGQGTTLTVSS
VL: DVLMTQSPLSLSVSLGDQASISCRSSQNIVHSTGNTYLEWYLQKPGQSPKLLIYKVSNRFSGVPDRFSGSGSGTDFTLKISRVEAEDLGVYYCFQGSHVPWTFGGGTKLEIK
notes: also called Nb2cL
- Kd [4]: 0.33 nM
